Source: the supplement of paper PMC9732359
± gives the uncertainty stated by the source.

Experiment: protein stability index of a GFP-peptide fusion (yeast GPS) (PSI 1-4); higher = more stable; sorted into four equal gates, so the index is relative within each strain
Procedure, shortened: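 Each library plasmid carries Cherry plus GFP with a tiled 17-residue yeast protein peptide fused downstream, and the pooled library was carried in yeast. Mid-log cultures in leucine-free medium were sorted into four equal gates by GFP/Cherry ratio. Reads from Illumina sequencing of PCR-amplified plasmids from each gate were assigned to strains by barcodes. Per peptide, the protein stability index was computed as the summed products of gate read frequency and gate number.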

| Sequence | protein stability index (doa10∆) | protein stability index (pdr5∆) | protein stability index (san1∆) | protein stability index (ubr1∆) |
| --- | --- | --- | --- | --- |
| MSGAAAASAAGYDRHIT [SCL1] | 3.08 ± 0.24 | 2.87 ± 0.16 | 3.27 ± 0.12 | 2.94 ± 0.14 |
| LAEEKIRAAGGVVELIA [RPL28] | 2.919 ± 0.025 | 3.072 ± 0.024 | 2.935 ± 0.023 | 2.931 ± 0.02 |
| HLRVRVHPFHVLRINKM [RPL10] | 1.12 ± 0.09 | 1.21 ± 0.072 | 1.2 ± 0.087 | 1.27 ± 0.08 |
| TILCTPTGGKAKLSEGT [RPS27A] | 2.83 ± 0.097 | 2.85 ± 0.1 | 3.12 ± 0.072 | 2.74 ± 0.056 |
| VTIREQINIMPSLKAHF [SIR3] | 2.53 ± 0.077 | 2.83 ± 0.075 | 2.85 ± 0.059 | 2.68 ± 0.043 |
| VSALQMLKQHLFKYQGH [PUP1] | 2.55 ± 0.073 | 2.71 ± 0.076 | 2.65 ± 0.059 | 2.57 ± 0.05 |
| LKLSMADYNGALLRVTK [POP4] | 2.82 ± 0.076 | 2.52 ± 0.05 | 2.61 ± 0.07 | 2.52 ± 0.053 |
| EKCKEINVETVYDIMAL [BRR2] | 2.28 ± 0.059 | 2.44 ± 0.049 | 2.57 ± 0.07 | 2.5 ± 0.046 |
| MMENYQNISPVYSVDPL [PRP8] | 2.08 ± 0.049 | 1.88 ± 0.058 | 2.21 ± 0.064 | 1.74 ± 0.044 |
| NRTMDGKPVSLPLLYNF [FAS1] | 3.08 ± 0.093 | 3.31 ± 0.1 | 2.7 ± 0.072 | 2.93 ± 0.073 |
| KIEFPLPSEDSRAQILQ [RPT5] | 3.39 ± 0.15 | 3.18 ± 0.13 | 3.11 ± 0.09 | 3.51 ± 0.11 |
| NVNKKALGQDTEKMEEQ [MED11] | 2.88 ± 0.059 | 2.94 ± 0.055 | 2.88 ± 0.034 | 3.04 ± 0.05 |
| FVEVERARVTKDLVEIK [RPN5] | 3.37 ± 0.11 | 3.44 ± 0.093 | 3.33 ± 0.066 | 3.56 ± 0.058 |
| TAFKSSPFGGSSHAKGI [RPS23A] | 3.02 ± 0.067 | 2.61 ± 0.053 | 3.02 ± 0.048 | 2.29 ± 0.04 |
| RVVTVDGKLIDISGTMS [SMC4] |  | 3.11 ± 0.19 | 3.35 ± 0.06 | 3.52 ± 0.12 |
| CSKSIPKDKAIKRMAIR [RPS26A] | 2.8 ± 0.069 | 2.96 ± 0.073 | 2.73 ± 0.065 | 2.85 ± 0.046 |
| GTISKLENKENGLLNEI [SMC2] | 3.45 ± 0.29 | 3.28 ± 0.087 | 3.36 ± 0.1 | 3.35 ± 0.17 |
| GRPQRKMMSFQANPTEE [RPB5] |  | 3.2 ± 0.17 | 3.44 ± 0.094 | 3.53 ± 0.19 |
| QKYWESMRIQILRRQAI [GAL11] | 1.34 ± 0.091 | 2.25 ± 0.087 | 1.65 ± 0.16 | 2.1 ± 0.058 |
| APAVELHGNAKKAAEEA [FAS2] | 3.42 ± 0.12 | 3.11 ± 0.14 | 3.1 ± 0.12 | 3.3 ± 0.15 |
| NSASNNGNLTSNQLISN [SWI1] | 1.96 ± 0.084 | 2.14 ± 0.078 | 2.45 ± 0.11 | 2.75 ± 0.056 |
| AKFFLNVSDEQLSNWQK [ITC1] | 3.21 ± 0.073 | 3.21 ± 0.053 | 3.18 ± 0.063 | 3.17 ± 0.072 |
| ILRSIPDKLLGVILMFA [COB] | 2.35 ± 0.06 | 1.58 ± 0.046 | 1.65 ± 0.069 | 1.52 ± 0.054 |
| LLFEDLFKKFNNDFKLS [RET1] |  | 1.39 ± 0.23 |  | 2.73 ± 0.13 |
| IGDKFASRHGQKGTIGI [RPB2] | 1.34 ± 0.07 | 1.96 ± 0.047 | 1.57 ± 0.16 | 1.1 ± 0.041 |
| RKCCNHPYLFEGAEPGP [ISW2] | 3.06 ± 0.064 | 3.11 ± 0.067 | 3.11 ± 0.05 | 3.2 ± 0.052 |
| NKTDAQAPTTGFSFGSQ [YJL041W/NSP1] | 2.91 ± 0.064 | 2.98 ± 0.06 | 3.28 ± 0.077 | 3.07 ± 0.069 |

| Sequence | protein stability index (doa10∆) | protein stability index (pdr5∆) | protein stability index (san1∆) | protein stability index (ubr1∆) |
| --- | --- | --- | --- | --- |
| SAQQNLASSFVNGFLNL [RPN1] | 2.73 ± 0.094 | 2.54 ± 0.067 | 3.1 ± 0.059 | 2.75 ± 0.068 |
| KLTAERANLRKYREGQV [POP1] | 2.91 ± 0.058 | 3.02 ± 0.07 | 2.8 ± 0.073 | 3.01 ± 0.055 |
| PLQSIPEIGNRKINLFY [SWI1] | 1.51 ± 0.07 | 1.48 ± 0.072 | 2.54 ± 0.073 | 1.43 ± 0.064 |
| HRTIVIRRAYLHYIPKY [RPS11A] | 1.87 ± 0.048 | 1.55 ± 0.042 | 1.84 ± 0.07 | 1.74 ± 0.031 |
| VTKEYFQDVYDLTGSEP [FAS1] | 2.53 ± 0.23 | 2.82 ± 0.078 | 1.43 ± 0.18 | 2.68 ± 0.092 |
| VDKNGAHLYMLEPSGSY [PRE10] | 2.04 ± 0.057 | 2.19 ± 0.064 | 2.92 ± 0.063 | 2.52 ± 0.058 |
| QRITIPNVCNMKQYRDF [PRP28] | 2.85 ± 0.18 | 2.55 ± 0.092 | 2.07 ± 0.11 | 2.58 ± 0.11 |
| AYVAIEQVKDDGTSTEK [RPN8] | 2.48 ± 0.16 | 1.73 ± 0.13 | 3.23 ± 0.15 | 2.64 ± 0.085 |
| RNVLSASLDGTIRLWEC [RPN14] | 2.95 ± 0.068 | 3.09 ± 0.073 | 3.14 ± 0.042 | 2.82 ± 0.043 |
| NLNDAGLALQLFKKLKE [RPN2] |  | 2.69 ± 0.23 | 2.51 ± 0.24 | 3.19 ± 0.28 |
| LELMDSKKTGQFNAQGV [POP1] | 3.54 ± 0.12 | 3.6 ± 0.077 |  | 3.48 ± 0.092 |
| GGQTKPVFHKKAKTTKK [RPL42A] | 2.72 ± 0.056 | 2.94 ± 0.076 | 2.73 ± 0.064 | 2.89 ± 0.045 |
| MLLLNDSVENSSNILED [SRB8] | 2.65 ± 0.078 | 2.57 ± 0.078 | 2.58 ± 0.065 | 2.38 ± 0.061 |
| QQMHEVRKELRGRAVVL [RPP0] | 3.01 ± 0.14 | 3.05 ± 0.13 | 3.27 ± 0.099 | 2.58 ± 0.073 |
| WNLNQFQIEADFIGHNS [ASC1] | 2.79 ± 0.079 | 2.7 ± 0.058 | 2.95 ± 0.076 | 2.52 ± 0.059 |
| NDNIGANRSRFNNEAPP [SMB1] | 2.64 ± 0.076 | 3.02 ± 0.047 | 2.54 ± 0.065 | 3.01 ± 0.067 |
| DAGKIDKHLYHVLYKES [RPL19A] | 3.25 ± 0.24 | 3.12 ± 0.2 | 2.7 ± 0.091 | 2.89 ± 0.083 |
| MSHRKYEAPRHGHLGFL [RPL3] |  | 3.15 ± 0.19 | 2.9 ± 0.099 | 2.94 ± 0.23 |
| KYLPHAILKLLENMPHP [PRP8] | 2 ± 0.081 | 1.46 ± 0.056 | 1.67 ± 0.1 | 1.61 ± 0.042 |
| NYAMTRNILHNTVPQVT [SRB5] | 1.7 ± 0.055 | 2.15 ± 0.061 | 1.66 ± 0.08 | 1.74 ± 0.038 |
| VVLYNYYLGQYYGCLEN [CSN12] | 2.5 ± 0.17 | 2.57 ± 0.15 | 2.51 ± 0.11 | 1.97 ± 0.13 |
| DSSVEDSTDNENSGKEM [LIN1] | 3.04 ± 0.041 | 3.24 ± 0.069 | 3.41 ± 0.081 | 2.99 ± 0.031 |
| IEETSAAIKDLDDFGEE [RRP43] | 2.85 ± 0.19 |  |  |  |
| ILIESRIHRLARYYRTV [RPS13] | 2.45 ± 0.11 | 2.06 ± 0.06 | 2.74 ± 0.087 | 2.1 ± 0.051 |
| IPYAAKLLFQELMAMNI [RPB2] | 1.64 ± 0.13 | 1.66 ± 0.098 | 1.64 ± 0.29 | 1.55 ± 0.055 |
| KHWQERVKVHFDQAGKK [RPL13A] | 2.31 ± 0.046 | 2.33 ± 0.047 | 2.28 ± 0.064 | 2.35 ± 0.036 |
| LNNLPYKNEDVTALLEQ [YCS4] | 2.9 ± 0.058 | 3.09 ± 0.05 | 3.05 ± 0.047 | 2.99 ± 0.056 |
